# Measurements taken from the nanobody polyreactivity screen of Harvey et al. (2022).
# Test: yeast display, Sf9 membrane polyspecificity reagent, FACS + sequencing; frameworks hold sequencing errors
# How it was run: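 Using colony PCR, genes from sorted yeast display clones were amplified, then sequenced on MiSeq at 2 × 250 and filtered by CDR length. The clones had been stained with 10% biotinylated, detergent-solubilized Sf9 membrane reagent for 1 hour at 4 °C and sorted by FACS into low and high (top ~1%) gates on anti-HA and streptavidin fluorescence. Polyreactivity labels come from the gate of origin.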
row,Sequence,polyreactivity (PSR sort gate)
1,QDQLVESGGGLVQEGGSLRLSCAASGLIFTYYAMGWYRQAPGKERELVAAINYSGGSTYYADSVKGRFTISRDNAKNTVYLQMNSLKPEDTAVYYCDARRVTQTEGPMGYWGQGTQVTVSS,low polyreactivity
2,QDQLVESGGGLVQEGGSLRLSCAASGSIFARNAMGWYRQAPGKERELVAAISRSGGSTYYADSVKGRFTISRDNAKNTVYVQMNSMKPEDTAVYFCNAVQRYSQGDYWGHGTQVTVSS,high polyreactivity
3,QDQLVESGGGLVQPGGSLRLSCAASGRTFRFNAMGWYRQAPGKERELVAVITSNDGSTYYADSVKGRFTISRDNAKNTVYLQMNSLKPEDTAVYYCAADWSYAWSWFYYWGQGTQVTVSS,low polyreactivity
4,QDQLVESGGGLVQSGGSLRLSCAASGFIFPHYAMGWYRPAPGKERELVAAISKSGDSTYYADSVKGRFSISRDNAKNTVYLQMNSLKPEDTAVYYCARRGRSLLWKYDYWRQGTQVTVSS,low polyreactivity
5,QDQLVESGGVLVQAGGSLRLSCAASGSIFFRNAMGWYRQAPGKERELVAGIRWSGGSTYYADSVKARFTISRDNAKNTVYLQMNSLKPEDSAVYYCAASRYRPARVQYSYDYWGQGTQVTVSS,high polyreactivity
6,QDQLVESGRGLVQAGGSLRLSCAASGFIFYNYAMGWYIQAPGKERELVAAISASGGRTYFADSVQGRFTISRDNAKNTVYLQMNRLKPEDTAFYYCNARVNYKGYDYWGQGTQVTVSS,high polyreactivity
7,QDQLVESGRGLVQAGGSLRLSCAASGSINATNAMGWYRQAPGKERELVPSISYSVSRTYYADSVKGRFTISRDNAKNTVYFQMNSLTPEDTAVYYCAVRQVNWFGIGYEDDYCGQGTQVTVSS,low polyreactivity
8,QDQLVESGVGLDQAGVSLRLSCAASGRTFKGNAMGWYSQATGKESELVAVITGSGGSTYYADSVKGRFTISRDNAKNTVYLQMTSLKPEDTAVYYCNKTLQRRSWYDYWGQGTQVTVSS,low polyreactivity
9,QDQLVESGVGLVQAGGSLRLSCAASGRTYFSHTMGWYRQAPGKERQLVAAITRSGGTTYYADSVKGRFTISRDNAKNTVYLQMNSLKPEDTAVYYCAARTSYAFYYPRDYWGQGTQVTVSS,high polyreactivity
10,QDQLVESGVGLVQAGGSLRLSCAASGSTFYYYAMGWYRQAPGKERELVAAITSDGSTNYADSVKGRFTISRDNAKNTVYLQMNSLKTEDTAVYYCAKTYYWGYDWGQGTQVTVSS,low polyreactivity
11,QDQLVESRGGLVQAGGSLGLSCAASGSIFSYYAMGWYRQAPGKERELVAAITSGGATTYYADSVKGRFTISRDYAKNTVYLQMNSLKPEDTAVYYCAAGYYVYYRWWELDYWGQGTQVTVSS,low polyreactivity
12,QDQLVESRGGLVQAGGSLRISCAASGSPFYRNAKGWNTQAPGKERELVATISTGGVSTYYADSVKGRFTISRDNAKNTVYLQMNSLKPEDTAVYYCAQRTVYLSNLDYWGQGTQVTVTS,low polyreactivity
13,QDQLVESRGGLVQAGGSLRLSCAASGINIGTNAMGWYRQAPGKERELVAAISGGGSTDYADSVKGRFTISRDNAKNPVYLQMNSLKPEDPAFYYCAANTGPVPLKGDYWGQGTQVTVSS,low polyreactivity
14,QDQLVESRGGLVQAGGSLRLSCAASGLIFWRYTMGWYSQAPGKERELVAAINRSGGSTYYADSVKGRFTISRDNAKNTVYFQMNSLKPDDPAVYYCAASGYRYPIDGDYWGLGTQVTVSS,high polyreactivity
15,QDQLVESRGGLVQAGGSLRLSCAASGRIFGYNAMGWYTQAPGKERELVAGITSVGRTYYADSVKGRFTISRDNAKNTVYLQMNSLKPEDTAVYYCNAASYSLAVTAEYEDMDYWGQGTQVTVTS,low polyreactivity
16,QDQLVESRGGLVQAGGSLRVSCAASGLSFGYYAMGWYRQATGKERELVAAISSSGVNTYYADSVKGRFTISRDNPKNTVYLQMNSLIPEDTAVYYCNTVPKPWYSWKYAYDYWGQGTQVTVSS,high polyreactivity
17,QDQLVESRVGLVQAGGSLRLSCAASGMIIGIYDMGWYRQAPGKERELVAAIRRSGGSTYYADSVKGRFTISRDNAKNTVYLQMYSLKPEDTAAYYCATDAWYYSQTNHDYWGQGTHVTVSS,low polyreactivity
18,QDQLVESVGCLVQAGGSLRLSCAASGLTIQRNDMGWYRQAPGKEREFVATITSNAGSTYYADSVKGRFTISRDNAKNTVYLQKNSLKPEDTAVYYCARERWWGGSDYWGQGTQVTVSS,high polyreactivity
19,QDQLVESVGDLVQAGGSLRLSCAASGGIFQKYVMGWYRQAPGKERELVARITSVGSTYYADSVKGRFTISRDNAKNTVYLQMNSLKPEDTAVYYCNAELYRRSQGYRFTAFDYWGQGTQVTVSS,low polyreactivity
20,QDQLVESVGGLVQAGGSLRLIFAASGSILTFYAMGWYRQAPGKERELVAAITWRGCSTYYADSVKGRFTISRDNEKNTVYLQMNSLKPEDTAVYYCAAERYGPRYDYWGQGTQVTLSS,high polyreactivity
21,QDQLVESVGGLVQAGGSLRLSCAASGFTFYNYAMGWYRQAPGKERELVAAISWNGGSTYYADSVKGRFTISRDNAKNTVYLQMNSLKPEDTAVYYCNADISQRTRGYYYVWWSRMDYWGQGTQVTVSS,low polyreactivity
22,QDQLVESVGGLVQAGGSLRLSCAASGLIFSRNVMGWYRQGPGTERELVAAITRSGGSTYYADSVKGRFTISRDNAKNTVYLQMNSLKPVDTAVYYCAASRFNYVYLLKGDYWGQGTQVTVSS,high polyreactivity
23,QDQLVESVGGLVQAGGSLRLSCAASGRIVKYAMGWYRQAPGKERELVAAISGSGGTTYYADSVKWRFTISRDNAKNTVYLQMNSQKPEDTAVYYCNKTPRNLRILQHSSQSMDYWGQGTQVTVSS,high polyreactivity
24,QDQLVESVGGLVQAGGSLRLSSAASGFIFYLYAIGWDRQAPGKERDLVAAITRRGGSTYYEDSVKGRFTISRDNAKNTVYLQMNSLKPEDTAVYDCAADHYGFFSAGDFDYWGQGTQVNVSS,high polyreactivity
25,QDQLVESVVCLVQAGLSLRLSGASSVRIFRYYAMGWYRQAHGKERELVAAINSDGRTYYADSVKGRFTISRDNANNTVYLQMNSLKPEDTAVYYCAADHHSYRYGGYYYWGQGTQVTVAS,low polyreactivity
26,QDQLVESWGGLVQAGCSLRLTCAASGSTFWWYAMGWNRQAPGKQREFDAPINWSGSRTYYADSVKGRFTISRDNAKNTVYLQINSLNPEDTAVYYCAAVGRWGVTGSHHDAYDYWGQGTQVTVSS,high polyreactivity
27,QDQLVESWGGLVQAGGSLRLSCAASGFTFNKYAMGWYRQAPGKERELVAAISSSGGRTSYADSVKGRFTISRDNAKNTVYLQMNSLKPEDTAVYYCNKVSTADMGYWGHGTQVTVSS,high polyreactivity
28,QDQLVESWGGLVQAGGSLRLSCASSGITVYGYTMGWYRQAPGKERELVAGISRGGSTYYADSVKGRFTISRDNAKNTVYLQINSLKPEDTAVYYCAVESFYRHASLYDYWGQGTQVTVSS,high polyreactivity
29,QDQLVETGGGLVQAGGSLRLSCAASRNTFAQKAMGRSRQAPGKERELVAAITDGTSTNYADSVKGRFTISRDNAKNTVYLQMNSLKPEDKAVYYCAAESLYTLFYWGYDYWGQGTQVTVSS,low polyreactivity
30,QDQLVETGLGLVQAGGSLRLSLAASGRTFSYAKAWYRQEPGKERELVAAITKRGGSTNFADSVKGRFTISRDNAKNTVYLQMNSLKPEDTAVYYCATDPYHGSYLTYGRMDYWGQGTQVTVSS,high polyreactivity
